The source of these data is paper PMC4601081, “A Single α Helix Drives Extensive Remodeling of the Proteasome Lid and Completion of Regulatory Particle Assembly” (Cell, 2015).

Ends that are not written are not given here.

Holding throughout (conditions): both partners purified
The target in assay [1] is T1, lid particle 2 (LP2), recombinant (S. cerevisiae, UniProt P40016 1-523; Q12250 1-445; Q12377 1-434; Q06103 1-429; Q08723 1-338; Q04062 …).
T1 construct: Rpn3, S. cerevisiae proteasome lid subunit; Rpn5, S. cerevisiae proteasome lid subunit; Rpn6, S. cerevisiae proteasome lid subunit; Rpn7, S. cerevisiae proteasome lid subunit; Rpn8, S. cerevisiae proteasome lid subunit; Rpn9, S. cerevisiae proteasome lid subunit; Rpn11, S. cerevisiae proteasome lid subunit; Sem1, S. cerevisiae proteasome lid subunit; legends speak of 'untagged LP2'; operons as in …
T1 sequence (Q12377 whole entry, chain 3 of 3): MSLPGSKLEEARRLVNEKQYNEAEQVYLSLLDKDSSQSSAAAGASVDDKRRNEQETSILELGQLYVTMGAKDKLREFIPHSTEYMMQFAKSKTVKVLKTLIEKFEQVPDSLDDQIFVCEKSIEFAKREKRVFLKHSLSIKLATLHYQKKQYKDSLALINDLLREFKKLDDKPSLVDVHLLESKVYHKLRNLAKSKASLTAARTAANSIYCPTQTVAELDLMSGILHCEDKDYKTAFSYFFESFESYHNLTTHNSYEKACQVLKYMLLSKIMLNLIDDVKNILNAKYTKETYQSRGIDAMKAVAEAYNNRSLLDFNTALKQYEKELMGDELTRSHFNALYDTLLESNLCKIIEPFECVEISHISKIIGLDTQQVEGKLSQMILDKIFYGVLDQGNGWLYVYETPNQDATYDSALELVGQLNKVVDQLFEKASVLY
T1 sequence (Q04062 whole entry, chain 6 of 3): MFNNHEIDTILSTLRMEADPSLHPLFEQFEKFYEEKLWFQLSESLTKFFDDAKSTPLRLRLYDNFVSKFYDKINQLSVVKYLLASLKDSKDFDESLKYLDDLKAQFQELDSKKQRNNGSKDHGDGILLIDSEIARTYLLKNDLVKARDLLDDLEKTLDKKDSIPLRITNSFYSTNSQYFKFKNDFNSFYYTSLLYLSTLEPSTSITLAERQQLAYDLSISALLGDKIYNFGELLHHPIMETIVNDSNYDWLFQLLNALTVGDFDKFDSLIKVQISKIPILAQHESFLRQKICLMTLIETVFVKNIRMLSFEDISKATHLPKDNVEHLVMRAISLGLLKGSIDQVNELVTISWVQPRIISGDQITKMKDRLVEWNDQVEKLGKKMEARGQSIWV
T1 sequence (O94742 whole entry, chain 8 of 3, further chain): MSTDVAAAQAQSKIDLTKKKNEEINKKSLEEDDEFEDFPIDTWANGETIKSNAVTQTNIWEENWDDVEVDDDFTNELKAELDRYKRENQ
In words: fluorescence polarisation; fluorescence anisotropy: 1 uM fluorescein-labelled N12pep in Lid Buffer alone, with 1 uM LP2, 5 uM Rpn12, or both; 25°C 20 min; excitation 485 nm, emission 513-528 nm.

Assay [2] addresses T1, lid particle 2 (LP2), recombinant. In words: negative-stain EM; purified recombinant LP2 treated with an equimolar concentration of recombinant Rpn12; 2D class averages.
For assay [3], the target named is T2, Rpn5, subunit of LP2 and lid purified from yeast (S. cerevisiae, UniProt Q12250 1-445).
T2 construct: Rpn5, S. cerevisiae proteasome lid subunit; source: purified from S. cerevisiae as part of LP2 or lid
T2 sequence (looked up): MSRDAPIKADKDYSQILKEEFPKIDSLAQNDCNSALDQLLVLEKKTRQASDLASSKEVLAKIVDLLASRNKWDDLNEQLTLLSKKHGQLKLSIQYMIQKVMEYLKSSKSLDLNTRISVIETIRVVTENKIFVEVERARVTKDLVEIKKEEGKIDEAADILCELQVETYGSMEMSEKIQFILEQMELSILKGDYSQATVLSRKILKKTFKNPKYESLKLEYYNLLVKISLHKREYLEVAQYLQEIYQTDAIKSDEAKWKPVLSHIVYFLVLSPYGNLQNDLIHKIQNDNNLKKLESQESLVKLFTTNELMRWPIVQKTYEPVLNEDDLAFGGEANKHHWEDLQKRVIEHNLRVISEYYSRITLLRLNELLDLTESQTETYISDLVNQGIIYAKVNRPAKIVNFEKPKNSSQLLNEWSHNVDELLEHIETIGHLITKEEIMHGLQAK
In words: cross-linking; QCLMS of LP2 purified from yeast as a whole complex: BS3-d0 / BS3-d4 at 1:200 protein to cross-linker, Buffer HA, 30°C 1 h; monomeric cross-linked complex cut from SDS-PAGE, trypsin, LC-MS/MS.

For assay [4], the target named is T3, Rpn8, subunit of LP2 and lid purified from yeast (S. cerevisiae, UniProt Q08723 1-338).
T3 construct: Rpn8, S. cerevisiae proteasome lid subunit; source: purified from S. cerevisiae as part of LP2 or lid
T3 sequence (looked up): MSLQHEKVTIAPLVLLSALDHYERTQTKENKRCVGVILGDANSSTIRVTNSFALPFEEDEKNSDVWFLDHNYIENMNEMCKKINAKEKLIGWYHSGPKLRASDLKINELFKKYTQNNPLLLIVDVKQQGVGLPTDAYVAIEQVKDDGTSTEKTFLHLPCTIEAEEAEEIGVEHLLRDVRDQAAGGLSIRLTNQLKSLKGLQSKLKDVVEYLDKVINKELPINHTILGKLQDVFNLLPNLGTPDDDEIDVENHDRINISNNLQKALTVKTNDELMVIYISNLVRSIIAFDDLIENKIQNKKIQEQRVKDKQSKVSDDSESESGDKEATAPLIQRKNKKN
The description is as above.

The target in assay [5] is T4, Rpn3, subunit of LP2 and lid purified from yeast (S. cerevisiae, UniProt P40016 1-523).
T4 construct: Rpn3, S. cerevisiae proteasome lid subunit; source: purified from S. cerevisiae as part of LP2 or lid
T4 sequence (looked up): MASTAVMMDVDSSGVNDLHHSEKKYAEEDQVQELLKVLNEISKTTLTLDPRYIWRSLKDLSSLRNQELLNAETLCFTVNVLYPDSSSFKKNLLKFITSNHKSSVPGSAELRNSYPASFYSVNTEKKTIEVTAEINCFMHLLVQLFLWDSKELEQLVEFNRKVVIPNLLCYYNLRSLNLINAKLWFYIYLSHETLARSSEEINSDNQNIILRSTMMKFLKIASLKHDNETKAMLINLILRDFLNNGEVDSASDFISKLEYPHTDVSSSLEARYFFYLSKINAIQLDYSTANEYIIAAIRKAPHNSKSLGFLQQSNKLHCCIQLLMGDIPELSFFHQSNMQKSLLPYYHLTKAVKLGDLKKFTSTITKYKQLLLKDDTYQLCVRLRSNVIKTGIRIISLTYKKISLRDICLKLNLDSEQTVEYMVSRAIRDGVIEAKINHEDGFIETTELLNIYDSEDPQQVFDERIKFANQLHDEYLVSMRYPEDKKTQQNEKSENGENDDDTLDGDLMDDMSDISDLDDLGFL
Described as above.

B1: N12pep, fluorescently labeled peptide of the Rpn12 C-terminal helix (peptide)
peptide: DQKTNIIEKAMDYAISIENIK(5,6‑carboxyfluorescein)
notes: Rpn12, S. cerevisiae, C-terminal helix; added lysine that carries 5,6-carboxyfluorescein; also called Rpn12 C-terminal helix peptide; source: synthetic peptide (Elim Biopharmaceuticals)
Consider B1, for which the binding result in assay [1] was “binds”.

B2: Rpn12, recombinant, full-length (natural protein, S. cerevisiae, UniProt P32496 1-274, looked up)
chain: MPSLAELTKSLSIAFENGDYAACEKLLPPIKIELIKNNLLIPDLSIQNDIYLNDLMITKRILEVGALASIQTFNFDSFENYFNQLKPYYFSNNHKLSESDKKSKLISLYLLNLLSQNNTTKFHSELQYLDKHIKNLEDDSLLSYPIKLDRWLMEGSYQKAWDLLQSGSQNISEFDSFTDILKSAIRDEIAKNTELSYDFLPLSNIKALLFFNNEKETEKFALERNWPIVNSKVYFNNQSKEKADYEDEMMHEEDQKTNIIEKAMDYAISIENIV
notes: Rpn12, S. cerevisiae proteasome lid subunit; also called recombinant Rpn12; purified Rpn12
Take B2: the binding result in assay [2] was “binds”.

B3: Rpn11, subunit of LP2 and lid purified from yeast (natural protein, S. cerevisiae, UniProt P43588 1-306, looked up)
chain: MERLQRLMMNSKVGSADTGRDDTKETVYISSIALLKMLKHGRAGVPMEVMGLMLGEFVDDYTVNVVDVFAMPQSGTGVSVEAVDDVFQAKMMDMLKQTGRDQMVVGWYHSHPGFGCWLSSVDVNTQKSFEQLNSRAVAVVVDPIQSVKGKVVIDAFRLIDTGALINNLEPRQTTSNTGLLNKANIQALIHGLNRHYYSLNIDYHKTAKETKMLMNLHKEQWQSGLKMYDYEEKEESNLAATKSMVKIAEQYSKRIEEEKELTEEELKTRYVGRQDPKKHLSETADETLENNIVSVLTAGVNSVAIK
notes: Rpn11, S. cerevisiae proteasome lid subunit; source: purified from S. cerevisiae as part of LP2 or lid
On to B3, for which the binding result in assay [3] and in assay [4] was “binds” in each case.

B4: Rpn7, subunit of LP2 and lid purified from yeast (natural protein, S. cerevisiae, UniProt Q06103 1-429, looked up)
chain: MVDVEEKSQEVEYVDPTVNRVPNYEVSEKAFLLTQSKVSIEQRKEAAEFVLAKIKEEEMAPYYKYLCEEYLVNNGQSDLEHDEKSDSLNEWIKFDQELYNELCKKNESKIKELNEKIQKLEEDDEGELEQAQAWINLGEYYAQIGDKDNAEKTLGKSLSKAISTGAKIDVMLTIARLGFFYNDQLYVKEKLEAVNSMIEKGGDWERRNRYKTYYGIHCLAVRNFKEAAKLLVDSLATFTSIELTSYESIATYASVTGLFTLERTDLKSKVIDSPELLSLISTTAALQSISSLTISLYASDYASYFPYLLETYANVLIPCKYLNRHADFFVREMRRKVYAQLLESYKTLSLKSMASAFGVSVAFLDNDLGKFIPNKQLNCVIDRVNGIVETNRPDNKNAQYHLLVKQGDGLLTKLQKYGAAVRLTGSDRV
notes: Rpn7, S. cerevisiae proteasome lid subunit; source: purified from S. cerevisiae as part of LP2 or lid
As to B4, in assay [5], the binding result is “binds”.
